Data reported in US20260297195 (published 2026).

Tests used:
[1] = biological target: human PDL1-Fc (human); experiment: ELISA
[2] = biological target: human PDL1-Fc (human); experiment: BLI
[3] = biological target: human PDL1-His (human); experiment: SPR 25C
human PDL1-His (human), sequence (chain, as listed by the source): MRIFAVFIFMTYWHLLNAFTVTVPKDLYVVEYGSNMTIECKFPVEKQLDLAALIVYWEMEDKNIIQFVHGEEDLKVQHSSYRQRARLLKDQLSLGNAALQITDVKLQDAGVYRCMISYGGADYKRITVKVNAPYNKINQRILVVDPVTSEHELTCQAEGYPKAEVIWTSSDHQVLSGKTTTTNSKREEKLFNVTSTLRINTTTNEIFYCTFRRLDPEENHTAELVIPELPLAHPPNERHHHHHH

human PDL1-Fc (human), sequence (chain, as listed by the source): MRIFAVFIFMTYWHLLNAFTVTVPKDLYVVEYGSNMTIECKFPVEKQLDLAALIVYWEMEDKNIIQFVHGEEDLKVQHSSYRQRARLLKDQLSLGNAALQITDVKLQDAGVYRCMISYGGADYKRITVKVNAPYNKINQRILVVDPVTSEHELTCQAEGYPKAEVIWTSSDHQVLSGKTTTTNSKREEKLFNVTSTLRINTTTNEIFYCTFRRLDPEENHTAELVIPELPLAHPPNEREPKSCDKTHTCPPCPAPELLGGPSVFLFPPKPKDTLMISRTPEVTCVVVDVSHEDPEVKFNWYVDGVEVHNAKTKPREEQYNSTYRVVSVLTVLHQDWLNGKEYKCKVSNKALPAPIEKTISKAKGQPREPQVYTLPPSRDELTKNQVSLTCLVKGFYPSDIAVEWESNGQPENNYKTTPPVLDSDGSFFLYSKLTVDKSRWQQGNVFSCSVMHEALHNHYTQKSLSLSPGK

Binder | EC50 [1] [mg/L] | Kd [2] [µM] | binding result [3]
PDL1-1v5 (antibody, V domains shown) VH: EVQLLESGGGLVQPGGSLRLSCAASGFTVSNSAVSWARQAPGKGLEWVSLIDSNRNTVYAQSVRGRFTISRDNVKNTVYLQMNSLRAEDTAVYYCAKGWGSTLWGQGTTVTVSS | 0.0478 | 0.0122 | –
NbPDL1-14-Fc (antibody, V domains shown) VH: QVQLQESGGGLVQPGGSLRLSCAASGIISDINMVAWYRQAPGKQRELVAKIFRGGSTYYTDFVKGRFTISRENAKNTVYLQMNSLKPDDTAVYYCNARIQIRADRDYSDYWGQGTQVTVSS | – | – | no binding
PDL1-14 (antibody, V domains shown) VH: QVQLQESGGGLVQPGGSLRLSCAASGIISDINMVAWYRQAPGKQRELVAKIFRGGSTYYTDFVKGRFTISRENAKNTVYLQMNSLKPDDTAVYYCNARIQIRADRDYSDYWGQGTQVTVSS | – | – | no binding
PDL1-1v6 (antibody, V domains shown) VH: EVQLLESGGGLVQPGGSLRLSCAASGFTVSNSAVSWARQAPGKGLEWVSLIDSNRNTVYAQSVRGRFTISRDNSKNTVYLQMNSLKAEDTAVYYCAKGIWGSTLWGQGTTVTVSS | – | 0.022 | –
